Data on one substance can be found in patent US8247195.

The target of this data set is H-NS (Salmonella enterica serovar Typhimurium 14028s) (UniProt A0A0F6B244). Particulars: ChIP/Q-PCR, formaldehyde crosslinked, anti-HA; value given as example of copies recovered per marA copy.
Chain of UniProt A0A0F6B244 (A0A0F6B244 whole entry): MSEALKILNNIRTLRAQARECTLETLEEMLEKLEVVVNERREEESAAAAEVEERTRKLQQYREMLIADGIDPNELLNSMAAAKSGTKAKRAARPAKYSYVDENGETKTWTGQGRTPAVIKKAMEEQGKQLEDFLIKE

In turn, proV gave a binding signal (fold enrichment vs marA) of 53.6.
